Patent US20220220176

System: thrombin-cleavable prodrug of human NK1
Sequence (chain, as listed by the source): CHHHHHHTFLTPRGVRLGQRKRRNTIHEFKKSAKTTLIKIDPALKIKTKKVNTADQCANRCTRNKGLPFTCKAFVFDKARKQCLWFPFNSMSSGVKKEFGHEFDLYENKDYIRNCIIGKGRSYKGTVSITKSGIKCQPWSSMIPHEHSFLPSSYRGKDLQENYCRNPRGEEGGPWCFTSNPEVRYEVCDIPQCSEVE

thrombin (Thrombin from human plasma; Sigma-Aldrich Co. LLC)
cleavage of the protease-sensitive peptide and release of human NK1 (SDS electrophoresis, CBB staining): The treatment of each prodrug of human NK1 with the corresponding protease (ADAM17 or thrombin) was found to cleave the protease-sensitive peptide contained in the prodrug of human NK1 so that the active form, human NK1, was released.
